Columns and labels:
[1] = target: T1, …3 (SEP3) (Arabidopsis thaliana), O22456; assay: native gel or EMSA; conditions: remark: other sources report otherwise
T1 chain: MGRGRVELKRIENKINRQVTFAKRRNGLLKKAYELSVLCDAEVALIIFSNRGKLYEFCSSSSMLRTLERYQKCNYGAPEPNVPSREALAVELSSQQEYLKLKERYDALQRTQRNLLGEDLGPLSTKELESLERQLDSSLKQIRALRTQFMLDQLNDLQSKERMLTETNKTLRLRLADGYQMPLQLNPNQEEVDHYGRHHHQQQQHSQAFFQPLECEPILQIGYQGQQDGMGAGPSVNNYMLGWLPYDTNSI

[2] = target: T1, …3 (SEP3) (Arabidopsis thaliana), O22456; assay: native gel or EMSA; conditions: remark: other sources report otherwise

B1: …3 (SEP3), O22456 1-251 (natural protein)
chain: MGRGRVELKRIENKINRQVTFAKRRNGLLKKAYELSVLCDAEVALIIFSNRGKLYEFCSSSSMLRTLERYQKCNYGAPEPNVPSREALAVELSSQQEYLKLKERYDALQRTQRNLLGEDLGPLSTKELESLERQLDSSLKQIRALRTQFMLDQLNDLQSKERMLTETNKTLRLRLADGYQMPLQLNPNQEEVDHYGRHHHQQQQHSQAFFQPLECEPILQIGYQGQQDGMGAGPSVNNYMLGWLPYDTNSI
[1]
  stoichiometry N: 4
[2]
  stoichiometry N: 2

Reference: paper PMC4176161
